{"source": "patent US20040259176A1", "about": "“Structural basis for the guanine nucleotide-binding activity of tissue transglutaminase and its regulation of transamidation activity” (priority 2003, published 2004)", "type_in_all_cases": "cell-based, human", "key": {"[1]": {"tested_on": "tissue transglutaminase (TG)", "experiment": "TG expression and activation in MDAMB231 cells (Western blot, GTP-binding, transamidation)", "conditions": "growth factor (EGF) stimulation, FIG. 9A-B", "experimental": "(§1) Cells were grown for 2 days in complete media and subsequently placed in low serum. The following day, cells were left untreated (0), treated with 5 μM RA (RA), 100 ng/ml EGF (EGF), or co-treated with 5 μM RA and 100 ng/ml EGF (RA/EGF) for 2 days and then lysed. In FIG. 9A, the cell extracts were used to determine TG GTP-binding activities (GTP-TGase) using an affinity-labeling assay with radioactive GTP as outlined in Example 11. Western blot analysis using TG and actin antibodies was performed to assess the expression levels of each of these proteins (TGase and actin). In FIG. 9B, the same cell lysates were assayed for TG transamidation activities as determined by the incorporation of 5-(biotin-amido) pentylamine into proteins as described in Example 12. The experiments were conducted in triplicate, quantitated, and the values from each experiment were averaged together and plotted. In FIG. 9C, SKBR3 cells were seeded at 1×10^5 cells/well and grown in low serum medium +/−5 μM RA and +/−100 ng/ml EGF for the times indicated and then counted. The results from three independent growth assays were averaged together and plotted.\nTotal cell lysates from each sample were combined with Laemmli sample buffer, boiled, and subjected to SDS-polyacrylamide gel electrophoresis (PAGE). […]"}, "[2]": {"tested_on": "tissue transglutaminase (TG)", "experiment": "TG transamidation assay (incorporation of 5-(biotin-amido) pentylamine) in SKBR3 cell extracts", "conditions": "SKBR3 cells, EGF compared with RA; FIG. 9A-B", "experimental": "as §1\nTG transamidation assays were performed as previously described with slight modifications. 15 μg of whole cell extracts were incubated in a buffer containing 2 mM 5-(biotin-amido) pentylamine, 40 mM CaCl2, and 40 mM DTT for 20 minutes. […]"}, "[3]": {"tested_on": "tissue transglutaminase (TG)", "experiment": "TG GTP-binding activity by photoaffinity labeling with [α-32P]GTP in SKBR3 cell lysates", "conditions": "SKBR3 cells, 5 μM RA or 100 ng/ml EGF for 2 days; FIG. 9A", "experimental": "as §1\nPhotoaffinity labeling of TG was performed by incubating whole cell lysates with 5 μCi of [α-^32P]GTP in 50 mM Tris-HCl, pH 7.4, 2 mM EGTA, 1 mM DTT, 20% (w/v) glycerol, 100 mM NaCl, and 500 μM AMP-PNP for 10 minutes at room temperature. […]"}, "[4]": {"tested_on": "tissue transglutaminase (TG)", "experiment": "TG expression by Western blot in SKBR3 cells", "conditions": "5 μM RA or 100 ng/ml EGF for 2 days, FIG. 9A", "experimental": "Cells were grown for 2 days in complete media and subsequently placed in low serum. The following day, cells were left untreated (0), treated with 5 μM RA (RA), 100 ng/ml EGF (EGF), or co-treated with 5 μM RA and 100 ng/ml EGF (RA/EGF) for 2 days and then lysed. In FIG. 9A, the cell extracts were used to determine TG GTP-binding activities (GTP-TGase) using an affinity-labeling assay with radioactive GTP as outlined in Example 11. Western blot analysis using TG and actin antibodies was performed to assess the expression levels of each of these proteins (TGase and actin). In FIG. 9B, the same cell lysates were assayed for TG transamidation activities as determined by the incorporation of 5-(biotin-amido) pentylamine into proteins as described in Example 12. The experiments were conducted in triplicate, quantitated, and the values from each experiment were averaged together and plotted. In FIG. 9C, SKBR3 cells were seeded at 1×10^5 cells/well and grown in low serum medium +/−5 μM RA and +/−100 ng/ml EGF for the times indicated and then counted. The results from three independent growth assays were averaged together and plotted. […]\nNIH3T3 cells were grown in Dulbecco's modified Eagle's medium containing 10% calf serum and 100 units/ml penicillin. […] Protein concentrations were determined using the Bio-Rad DC protein assay. […]"}, "[5]": {"tested_on": "SKBR3 cells", "experiment": "Nuclear condensation or blebbing assay (doxorubicin-induced apoptosis)", "conditions": "SKBR3 cells stimulated with EGF (100 ng/ml) for 2 days prior to doxorubicin; FIG. 11B", "experimental": "FIGS. 1A-D illustrate that the protective effect of EGF from doxorubicin-induced apoptosis is blocked by MDC in SKBR3 cells. In FIG. 11A, nearly confluent cultures of SKBR3 and MDAMB231 cells were placed in low serum medium. The following day, the cells were exposed to low serum medium +/−0.25 μM doxorubicin (Dox) for the times indicated and subsequently lysed. The presence of the activated form of caspase 3 (cleaved caspase 3) and actin (actin) in the cell extracts was assessed by Western blot analysis. In FIG. 11B, SKBR3 and MDAMB231 cells were maintained in low serum medium (0) or treated with 10 μM MDC (MDC) for 1.5 days. […] All cell cultures were then treated with +/−0.25 μM doxorubicin (Dox) for about 1 day and the cells were scored for programmed cell death as described in Example 13. […]\nNIH3T3 cells were grown in Dulbecco's modified Eagle's medium containing 10% calf serum and 100 units/ml penicillin. […] Protein concentrations were determined using the Bio-Rad DC protein assay.\nCells were seeded in 6-well dishes and grown in complete medium for 2 days. […] The cultures were then incubated with fresh medium containing RA, EGF, and MDC and +/−0.2 μM doxorubicin for an additional 1.5 days and were fixed and stained with 4,6-diamidino-2-phenylindole (2 μg/ml) for viewing by fluorescence microscopy. […]"}, "[6]": {"tested_on": "SKBR3 cells", "experiment": "Cell growth assay", "conditions": "low serum medium, 5 μM RA or 100 ng/ml EGF, up to 6 days; FIG. 9C", "experimental": "as §1\nCells were seeded at 1×10^5 cells/well and grown in medium containing 0.5% serum +/−5 μM RA and +/−100 ng/ml EGF. Every 2 days the medium was changed. At 0, 2, 4, and 6 days of treatment, the cells were collected and counted."}}}
{"molecule": "EGF: epidermal growth factor, a known mitogen and survival factor (protein, UniProt P01133 23-1207, looked up, Pro-epidermal growth factor) Pro-epidermal growth factor: PQHWSCPEGTLAGNGNSTCVGPAPFLIFSHGNSIFRIDTEGTNYEQLVVDAGVSVIMDFHYNEKRIYWVDLERQLLQRVFLNGSRQERVCNIEKNVSGMAINWINEEVIWSNQQEGIITVTDMKGNNSHILLSALKYPANVAVDPVERFIFWSSEVAGSLYRADLDGVGVKALLETSEKITAVSLDVLDKRLFWIQYNREGSNSLICSCDYDGGSVHISKHPTQHNLFAMSLFGDRIFYSTWKMKTIWIANKHTGKDMVRINLHSSFVPLGELKVVHPLAQPKAEDDTWEPEQKLCKLRKGNCSSTVCGQDLQSHLCMCAEGYALSRDRKYCEDVNECAFWNHGCTLGCKNTPGSYYCTCPVGFVLLPDGKRCHQLVSCPRNVSECSHDCVLTSEGPLCFCPEGSVLERDGKTCSGCSSPDNGGCSQLCVPLSPVSWECDCFPGYDLQLDEKSCAASGPQPFLLFANSQDIRHMHFDGTDYGTLLSQQMGMVYALDHDPVENKIYFAHTALKWIERANMDGSQRERLIEEGVDVPEGLAVDWIGRRFYWTDRGKSLIGRSDLNGKRSKIITKENISQPRGIAVHPMAKRLFWTDTGINPRIESSSLQGLGRLVIASSDLIWPSGITIDFLTDKLYWCDAKQSVIEMANLDGSKRRRLTQNDVGHPFAVAVFEDYVWFSDWAMPSVMRVNKRTGKDRVRLQGSMLKPSSLVVVHPLAKPGADPCLYQNGGCEHICKKRLGTAWCSCREGFMKASDGKTCLALDGHQLLAGGEVDLKNQVTPLDILSKTRVSEDNITESQHMLVAEIMVSDQDDCAPVGCSMYARCISEGEDATCQCLKGFAGDGKLCSDIDECEMGVPVCPPASSKCINTEGGYVCRCSEGYQGDGIHCLDIDECQLGEHSCGENASCTNTEGGYTCMCAGRLSEPGLICPDSTPPPHLREDDHHYSVRNSDSECPLSHDGYCLHDGVCMYIEALDKYACNCVVGYIGERCQYRDLKWWELRHAGHGQQQKVIVVAVCVVVLVMLLLLSLWGAHYYRTQKLLSKNPKNPYEESSRDVRSRRPADTEDGMSSCPQPWFVVIKEHQDLKNGGQPVAGEDGQAADGSMQPTSWRQEPQLCGMGTEQGCWIPVSSDKGSCPQVMERSFHMPSYGTQTLEGGVEKPHSLLSANPLWQQRALDPPHQMELTQ", "values": [{"measurement": "constitutive level of TG expression or activation", "setting": "[1]", "value": "did not alter the constitutive level of TG expression or activation"}, {"measurement": "GTP-binding and enzymatic (transamidation) activity of TG", "setting": "[2]", "value": "more effective than RA"}, {"measurement": "TG GTP-binding activity", "setting": "[3]", "value": "increased GTP-binding"}, {"measurement": "TG expression", "setting": "[4]", "value": "up-regulated TG expression"}, {"measurement": "reduction in the rate of apoptosis", "setting": "[5]", "value": 50, "unit": "%"}, {"measurement": "growth of SKBR3 cells", "setting": "[6]", "value": "did not impede the growth"}]}
